Experimental data reported in PMC5681633, “SnO2 hollow nanotubes: a novel and efficient support matrix for enzyme immobilization” (Scientific Reports, 2017).

Substrate: CCCCCCCCCCCCCCCC(=O)Oc1ccc([N+](=O)[O-])cc1
Experiment: hydrolysis assay, Michaelis-Menten nonlinear fit
Type: biochemical, Thermomyces lanuginosus
Conditions: free enzyme, optimum temperature and pH (50 °C, pH 8.5, 20 mM Tris-HCl), substrate 0.05-5.0 mM, p-NPP as the standard assay substrate
Description: hydrolysis assay, Michaelis-Menten nonlinear fit on Lipase from Thermomyces lanuginosus (Lipozyme TL 100 L)

B1: Lipase from Thermomyces lanuginosus (Lipozyme TL 100 L) (Thermomyces lanuginosus) (protein)
chain: EVSQDLFNQFNLFAQYSAAAYCGKNNDAPAGTNITCTGNACPEVEKADATFLYSFEDSGVGDVTGFLALDNTNKLIVLSFRGSRSIENWIGNLNFDLKEINDICSGCRGHDGFTSSWRSVADTLRQKVEDAVREHPDYRVVFTGHSLGGALATVAGADLRGNGYDIDVFSYGAPRVGNRAFAEFLTVQTGGTLYRITHTNDIVPRLPPREFGYSHSSPEYWIKSGTLVPVTRNDIVKIEGIDATGGNNQPNIPDIPAHLWYFGLIGTCL
notes: commercial secreted enzyme preparation (Novozymes), free (not immobilised)
**Q.** With B1 as the protein, how does the Km read?
**A.** 710 ± 50 µM
